Data published in patent publication US20250152742A1, “COMPOSITIONS AND METHODS FOR NEUROLOGICAL DISEASES” (Trames Bio, Inc., priority 2022, published 2025).
Where a chain is given by its changes, count along the chain named. Names may count otherwise. Read-outs that look alike come from different tables or passages of the source.

Assays:
[1] = tested on: engineered chimeric receptor SEQ ID NO: 33 and its mutants (human α7-nAChR ligand binding domain / human GlyRα1 ion pore domain) in Lenti-X 293T cells; experiment: YFP fluorescence quenching anion reporter plate reader assay (percent quench, EC50); assay type: cell-based; details: for YFP fluorescence quenching using CNL001 (percent quench): receptor named in row; for EC50: ligand TC-5619, YFP plate reader
Method in brief: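 Lenti-X 293T cells co-expressing an anion-quenchable YFP were transiently transfected with receptor DNA, then ligand was added in NaI-substituted buffer (pH 7.2) after 30 min at 37 °C. Fluorescence was read about 2 min; percent quench = mean of last 10 s over 15 s pre-ligand baseline.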

[2] = tested on: engineered receptors and wild type nAchRa7 expressed in HEK293T cells; experiment: High throughput electrophysiology (IonFlux HT/Mercury automated patch clamp), EC50; assay type: cell-based, human; details: for EC50: ligand TC-5619
Experimental: To confirm the […] determined by plate reader as well as develop a better understanding of maximum current flow, the engineered receptors were subjected to high throughput electrophysiology system, as described below. For HEK293T studies, cDNAs encoding ion channels were cloned into pcDNA3.1 using standard recombination techniques. HEK293T cells from Clontech (Lenti-XTM 293T Cell Line) were cultured in DMEM supplemented with 10% FBS and 1% Pen/Strep to 40-50% confluence using standard cell culture protocols, transfected with ion channel plasmids at a concentration of 18 μg per 15 cm dish using Fugene 6, and grown for an additional 24 hours. Cells were then assayed on an electrophysiological system (IonFluxHT and/or Mercury, Fluxion Biosciences) in which dose-response relationships may be assessed through a microfluidics-based platform for establishing whole cell configurations. Ensemble plates were primed with extracellular buffer (140 mM NaCl, 5 mM KCl, 2 mM CaCl2), 1 mM MgCl2, 10 mM HEPES, and 10 mM glucose, pH 7.2 with NaOH, mOsm 310), intracellular buffer (145 mM CsCl, 2 mM CaCl2, 2 mM MgCl2, 10 mM HEPES, and 10 mM EGTA, pH 7.2 with CsOH, mOsm 305), as adapted from Lynagh and Lynch, and test compounds (stocks prepared fresh) diluted in extracellular buffer. Cells were then released from the plate with Accutase, centrifuged, resuspended in extracellular buffer, and loaded into Ensemble plates. Cells were then subjected to a standard protocol for priming, trapping, breaking, and establishing whole cell configuration, with cells held at −60 mV throughout the recording. After recording baseline, progressive doses of test compounds were applied using the IonFlux software to assess dose response relationships. Data were then analyzed off-line using custom Python scripts to convert data to .csv format, re-plot traces, and apply QC measurements to reject unstable recordings (i.e. thresholding based on access resistance and/or standard deviation in baseline, as well as artifact rejection). Peak currents were then calculated, and population data were fit using a 4-parameter logistic equation as described by the Hill Equation. Currents were measured on an automated patch clamp system (Fluxion Biosciences) following 1 second addition of drug and the EC50 values calculated are tabulated below in Table 22A and Table 22B below and Table 21A and Table 21B above (in Example 2).

[3] = HEK293 Cell Line, Table 22A, read-out: High-throughput Ephys EC50 (uM) TC-5619
[4] = high throughput electrophysiology, read-out: TC-5619 EC50 (ephys)

B1: CODA806: engineered receptor: Y115D, L131Q in SEQ ID NO: 33 (Chemogenic receptor-11) (protein)
chain: MRCSPGGVWLALAASLLHVSLQGEFQRKLYKELVKNYNPLERPVANDSQPLTVYFSLSLLQIMDVDEKNQVLTTNIWLQMSWTDHYLQWNVSEYPGVKTVRFPDGQIWKPDILLDNSADERFDATFHTNVQVNSSGHCQYLPPGIFKSSCPMDLKNFPMDVQTCKLKFGSWSYGGWSLDLQMQEADISGYIPNGEWDLVGIPGKRSERFYECCKEPYPDVTFTVTMRRRMGYYLIQMYIPSLLIVILSWISFWINMDAAPARVGLGITTVLTMTTQSSGSRASLPKVSYVKAIDIWMAVCLLFVFSALLEYAAVNFVSRQHKELLRFRRKRRHHKSPMLNLFQEDEAGEGRFNFSAYGMGPACLQAKDGISVKGANNSNTTNPPPAPSKSPEEMRKLFIQRAKKIDKISRIGFPMAFLIFNMFYWIIYKIVRREDVHNQ
modifications: synthetic sequence of chimeric LGIC
YFP fluorescence quenching using CNL001 (percent quench) ([1]; 1 nM CNL001, first column so headed): 6.587%
YFP fluorescence quenching using CNL001 (percent quench) ([1]; 1 nM CNL001, second column so headed): −5.179%
YFP fluorescence quenching using TC-5619/Bradanicline (percent quench) ([1]; 1 nM brd (TC-5619/Bradanicline)): 0.92%
YFP fluorescence quenching using TC-5619/Bradanicline (percent quench) ([1]; 3 nM brd (TC-5619/Bradanicline)): −4.65%
YFP fluorescence quenching using CNL001 (percent quench) ([1]; 10 nM CNL001, first column so headed): −2.366%
YFP fluorescence quenching using CNL001 (percent quench) ([1]; 10 nM CNL001, second column so headed): −1.272%
YFP fluorescence quenching using TC-5619/Bradanicline (percent quench) ([1]; 10 nM brd (TC-5619/Bradanicline)): 0.38%
YFP fluorescence quenching using TC-5619/Bradanicline (percent quench) ([1]; 30 nM brd (TC-5619/Bradanicline)): −8.96%
YFP fluorescence quenching using CNL001 (percent quench) ([1]; 50 nM CNL001, first column so headed): 2.763%
YFP fluorescence quenching using CNL001 (percent quench) ([1]; 50 nM CNL001, second column so headed): 1.995%
YFP fluorescence quenching using ABT-126 (percent quench) ([1]; 50 nM abt (ABT-126)): −1.81%
YFP fluorescence quenching using CNL001 (percent quench) ([1]; 100 nM CNL001, first column so headed): 3.091%
YFP fluorescence quenching using CNL001 (percent quench) ([1]; 100 nM CNL001, second column so headed): 1.45%
YFP fluorescence quenching (percent quench) ([1]; 100 nM CNL002): −10.03%
YFP fluorescence quenching using ABT-126 (percent quench) ([1]; 100 nM abt (ABT-126)): −2.61%
YFP fluorescence quenching using AZD-0328 (percent quench) ([1]; 100 nM azd0328): 12.15%
YFP fluorescence quenching using TC-5619/Bradanicline (percent quench) ([1]; 100 nM brd (TC-5619/Bradanicline)): 12.18%
YFP fluorescence quenching using ABT-126 (percent quench) ([1]; 300 nM abt (ABT-126)): −3.78%
YFP fluorescence quenching using AZD-0328 (percent quench) ([1]; 300 nM azd0328): 30.92%
YFP fluorescence quenching using TC-5619/Bradanicline (percent quench) ([1]; 300 nM brd (TC-5619/Bradanicline)): −0.3%
YFP fluorescence quenching using CNL001 (percent quench) ([1]; 1 uM CNL001, first column so headed): 7.331%
YFP fluorescence quenching using CNL001 (percent quench) ([1]; 1 uM CNL001, second column so headed): 9.103%
YFP fluorescence quenching (percent quench) ([1]; 1 uM CNL002): −3.33%
YFP fluorescence quenching using ABT-126 (percent quench) ([1]; 1 uM abt (ABT-126)): −2.6%
YFP fluorescence quenching using TC-5619/Bradanicline (percent quench) ([1]; 1 uM brd (TC-5619/Bradanicline)): 45.47%
YFP fluorescence quenching (percent quench) ([1]; 10 uM ach (acetylcholine)): 9.47%
YFP fluorescence quenching (percent quench) ([1]; 30 uM CNL002): 6.96%
YFP fluorescence quenching using AZD-0328 (percent quench) ([1]; 30 uM azd0328): 68.65%
YFP fluorescence quenching (percent quench) ([1]; 100 uM ach (acetylcholine)): 6.12%
YFP fluorescence quenching (percent quench) ([1]; 1 mM ach (acetylcholine)): −1.56%
YFP fluorescence quenching (percent quench) ([1]; 3 mM ach (acetylcholine)): 17.57%
YFP fluorescence quenching using Facinicline, 30 nM fac ([1]; ligand Facinicline 30 nM): 41.32
YFP fluorescence quenching using Facinicline, 100 nM fac ([1]; ligand Facinicline 100 nM): 59.51
YFP fluorescence quenching using Facinicline, 300 nM fac ([1]; ligand Facinicline 300 nM): 74.86
YFP fluorescence quenching using Facinicline, 10 uM fac ([1]; ligand Facinicline 10 uM): 78.53
YFP fluorescence quenching using Facinicline, 30 uM fac ([1]; ligand Facinicline 30 uM): 84.45
YFP fluorescence quenching using TC-6987, 1 uM tc6987 ([1]; ligand TC-6987 1 uM): 38.83
YFP fluorescence quenching using TC-6987, 10 uM tc6987 ([1]; ligand TC-6987 10 uM): 31.59
YFP fluorescence quenching using TC-6987, 500 uM tc6987 ([1]; ligand TC-6987 500 uM): 29.83
fold increased potency towards RG-3487 compared to wild type receptor ([2]; ligand RG-3487): over 10 fold
fold reduced potency to acetylcholine compared to wild type receptor ([2]; ligand acetylcholine): over 500 fold

B2: COAD1056 (protein)
chain: B1 chain with R101F, D115E, Q131L, Y210W
modifications: synthetic sequence of chimeric LGIC
EC50 [1]: 25.1 nM
EC50 [2, 3]: 0.042 µM
EC50 [2, 4]: 0.0421 µM

B3: COAD1055 (protein)
chain: B1 chain with R101W, D115E, Q131L, Y210W
modifications: synthetic sequence of chimeric LGIC
EC50 [1]: 23.5 nM
EC50 [2, 3]: 0.0106 µM
EC50 [2, 4]: 0.0106 µM
